Data taken from patent KR20230171885A (dated 2023).

Biological target: T1, 재조합 인간 TIGIT 단백질 (Acro Biosystems) (human, UniProt Q495A1 22-141)
T1 construct: Bought recombinant protein; also called recombinant human TIGIT; TIGIT 항원
T1 sequence: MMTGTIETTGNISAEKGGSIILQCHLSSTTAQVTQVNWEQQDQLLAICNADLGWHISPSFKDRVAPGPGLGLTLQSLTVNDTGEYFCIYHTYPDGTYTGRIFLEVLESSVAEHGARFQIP
Experiment: SPR, Biacore T200 multi-cycle kinetics, 25C; antibody captured on anti-human IgG CM5 chip, recombinant human TIGIT as analyte; 1:1 model

Kd: 0.884 nM
koff: 0.00158 s⁻¹
kon: 1.78e+06 M⁻¹ s⁻¹
B1: 항-TIGIT 항체 7A6 (7A6_VH3/Vk5) (antibody, human IgG1, kappa, V domains shown)
VH: QVQLQESGPGLVKPSQTLSLTCTVTGYSITSDYAWNWIRQPPGKGLEWMGYISYSGSARYNPSLKSRVTISRDTSKNQFSLKLSSVTAEDTATYYCARKGYPAYFAYWGQGTLVTVSS
VL: DIQMTQSPSSLSASVGDRVSITCKASQDVSTAVAWYQQKPGQAPRLLIYSASYRYTGVPDRFSGSGSGTDFTLTISSLQPEDFATYYCQHHYSTPYTFGQGTKLEIKR
notes: Parental IgG1/kappa antibody without RS15; also called 7A6 VH3/Vκ5; Parental Ab (7A6)
